Test results published in patent US20210388079A1.

Tests used:
[1] = target: NYESO1-001 (tetramer, row label of Figure 31) (human); assay: flow cytometry, HLA-A*02/NYESO1-001 tetramer staining of TCR-RNA-electroporated CD8+ T-cells; mock cells 1.09%
[2] = target: HLA-A*02/SPINK2-001 tetramer (human); assay: flow cytometry, HLA-A*02/SPINK2-001 tetramer staining of TCR-RNA-electroporated CD8+ T-cells; mock cells 0.97%

% of CD8+ T-cells in the tetramer-positive gate [1]: 0.96%
% of CD8+ T-cells in the tetramer-positive gate [2]: 30%
B1: TCR R49P2B7, alpha and beta chains expressed in human primary CD8+ T-cells by RNA electroporation (TCR, V domains shown)
V domain 1: AQSVTQLGSHVSVSEGALVLLRCNYSSSVPPYLFWYVQYPNQGLQLLLKYTTGATLVKGINGFEAEFKKSETSFHLTKPSAHMSDAAEYFCAVRIFGNEKLTFGTGTRLTIIP
V domain 2: DVKVTQSSRYLVKRTGEKVFLECVQDMDHENMFWYRQDPGLGLRLIYFSYDVKMKEKGDIPEGYSVSREKKERFSLILESASTNQTSMYLCASSLMGELTGELFFGEGSRLTVLE
